Reference: IntAct's records for PubMed 20010840

B1: Signaling lymphocytic activation molecule (Homo sapiens), Q13291 (parent)
chain: MDPKGLLSLTFVLFLSLAFGASYGTGGRMMNCPKILRQLGSKVLLPLTYERINKSMNKSIHIVVTMAKSLENSVENKIVSLDPSEAGPPRYLGDRYKFYLENLTLGIRESRKEDEGWYLMTLEKNVSVQRFCLQLRLYEQVSTPEIKVLNKTQENGTCTLILGCTVEKGDHVAYSWSEKAGTHPLNPANSSHLLSLTLGPQHADNIYICTVSNPISNNSQTFSPWPGCRTDPSETKPWAVYAGLLGGVIMILIMVVILQLRRRGKTNHYQTTVEKKSLTIYAQVQKPGPLQKKLDSFPAQDPCTTIYVAATEPVPESVQETNSITVYASVTLPES

Variants of: B1
Conditions: with hema_mease H

Variant | effect of a mutation on the interaction
MDPKGLLSLTFVLFLSLAFGASYGTGGRMMNCPKILRQLGSKVLLPLTYERINKSMNKSIHIVVTMAKSLENSVENKIVSLDPSEAGPPRALGDRYKFYLENLTLGIRESRKEDEGWYLMTLEKNVSVQRFCLQLRLYEQVSTPEIKVLNKTQENGTCTLILGCTVEKGDHVAYSWSEKAGTHPLNPANSSHLLSLTLGPQHADNIYICTVSNPISNNSQTFSPWPGCRTDPSETKPWAVYAGLLGGVIMILIMVVILQLRRRGKTNHYQTTVEKKSLTIYAQVQKPGPLQKKLDSFPAQDPCTTIYVAATEPVPESVQETNSITVYASVTLPES [Y91A] | decreasing interaction
MDPKGLLSLTFVLFLSLAFGASYGTGGRMMNCPKILRQLGSKVLLPLTYERINKSMNKSIHIVVTMAKSLENSVENKIVSLDPSEAGPPAYLGDRYKFYLENLTLGIRESRKEDEGWYLMTLEKNVSVQRFCLQLRLYEQVSTPEIKVLNKTQENGTCTLILGCTVEKGDHVAYSWSEKAGTHPLNPANSSHLLSLTLGPQHADNIYICTVSNPISNNSQTFSPWPGCRTDPSETKPWAVYAGLLGGVIMILIMVVILQLRRRGKTNHYQTTVEKKSLTIYAQVQKPGPLQKKLDSFPAQDPCTTIYVAATEPVPESVQETNSITVYASVTLPES [R90A] | decreasing interaction
MDPKGLLSLTFVLFLSLAFGASYGTGGRMMNCPKILRQLGSKVLLPLTYERINKSMNKSIHIVVTMAKSLENSVENKIVSLDPSEAGGGRYLGDRYKFYLENLTLGIRESRKEDEGWYLMTLEKNVSVQRFCLQLRLYEQVSTPEIKVLNKTQENGTCTLILGCTVEKGDHVAYSWSEKAGTHPLNPANSSHLLSLTLGPQHADNIYICTVSNPISNNSQTFSPWPGCRTDPSETKPWAVYAGLLGGVIMILIMVVILQLRRRGKTNHYQTTVEKKSLTIYAQVQKPGPLQKKLDSFPAQDPCTTIYVAATEPVPESVQETNSITVYASVTLPES [P88G;P89G] | decreasing interaction
